The text below walks through data of patent publication US20110039729A1.

Assay [1] addresses soybean agglutinin (SBA), GalNAc-specific lectin (soybean) (UniProt P05046). The assay can be described thus: single SBA panning step, 8×10^6 cfu glycophage mixed with an equal amount of aglycosylated phage.
Assay [2] shares this target.
Assay [3] shares this target. Description: single SBA panning step, glycophage with 10^4-fold excess of aglycosylated phage.
The target is the same in assay [4]. Description: single SBA panning step, 8×10^6 cfu glycophage alone.
The target is the same in assay [5]. The assay can be described thus: single SBA panning step, glycophage with 10^2-fold excess of aglycosylated phage.
Assay [6] has the same target. Description: single SBA panning step, 8×10^10 aglycosylated phage applied.

Chain of UniProt P05046 (P05046 33-285 limits assumed): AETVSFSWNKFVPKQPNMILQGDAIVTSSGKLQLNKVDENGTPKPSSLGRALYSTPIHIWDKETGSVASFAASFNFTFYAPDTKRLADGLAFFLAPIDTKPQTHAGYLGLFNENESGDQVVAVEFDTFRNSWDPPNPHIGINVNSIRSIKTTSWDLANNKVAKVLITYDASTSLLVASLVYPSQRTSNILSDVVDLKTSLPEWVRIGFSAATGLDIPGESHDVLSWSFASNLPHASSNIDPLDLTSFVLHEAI

In assay [1], “glycosylated AcrA-g3p fusion protein from TG1 pgl+ cells (in lysates and displayed on phage) (from UniProt P69168 19-424)” had a percent of phage bound by SBA of 96% and a phage bound by SBA of 7.8e+06 cfu. Further, in assay [2], the fold increase in phage titer in the eluate was determined as 1000 fold and the phage titer in the eluate turned out to be 1e+06 cfu/ml. Further, in assay [3], the percent of phage bound by SBA was 79% and the phage bound by SBA came to 6.3e+06 cfu. Besides, in assay [4], the percent of phages recovered was determined as 96% and the phages recovered was 7.7e+06 cfu. Besides, in assay [5], the percent of phage bound by SBA turned out to be 93% and the phage bound by SBA came out at 7.4e+06 cfu.

In assay [2], “non-glycosylated AcrA-g3p fusion protein from TG1 pglmut cells (in lysates and displayed on phage) (from UniProt P69168 19-424)” had a phage titer in the eluate of 1000 cfu/ml. The infectious particles bound to SBA in assay [6] worked out at 38000 cfu.
